Results as given in article PMC2797447 (Blood cells, molecules & diseases, 2009).

Biological target: the molecule itself
Test: cross-linking

B1: mouse Kcc1 K-Cl cotransporter (natural protein, UniProt Q9JIS8 1-1085, looked up)
chain: MPHFTVVPVDGPRRGDYDNLEGLSWVDYGERAEREDSDGQGNHRENSPFLCPLDASRGNDYYDRNLALFEEELDIRPKVSSLLGKLVSYTNLTQGAKEHEEAESGEGGRRRAAKAPSMGTLMGVYLPCLQNIFGVILFLRLTWMVGTAGVLQALLIVLICCCCTLLTAISMSAIATNGVVPAGGSYFMISRSLGPEFGGAVGLCFYLGTTFAAAMYILGAIEILLTYIAPPAAIFYPSGTHDMSSATLNNMRVYGTIFLTLMTLVVFVGVKYVNKFASLFLACVIISILSIYAGGIKSIFDPPVFPVCMLGNRTLSRDQFDICAKTVVVDNETVATRLWTFFCHSPNLTADSCDPYFLLNNVTEIPGIPGAAAGVLQENLWSAYLEKGEVVEKHGLPSTDTLGLKESLSLYVVADIATSFTVLVGIFFPSVTGIMAGSNRSGDLRDAQKSIPVGTILAIVTTSLVYFSSVILFGACIEGVVLRDKYGDGVSRNLVVGTLAWPSPWVIVVGSFFSTCGAGLQSLTGAPRLLQAIAKDNIIPFLRVFGHGKANGEPTWALLLTALIAELGILIASLDMVAPILSMFFLMCYLFVNLACAVQTLLRTPNWRPRFKYYHWTLSFLGMSLCLALMFVSSWYYALVAMLIAGMIYKYIEYQGAEKEWGDGIRGLSLSAARYALLRLEEGPPHTKNWRPQLLVLLKLDEDLHVKYPRLLTFASQLKAGKGLTIVGSVIQGSFLESYGEAQAAEQTIKNMMDIEKVKGFCQVVVASKVREGLAHLIQSCGLGGMRHNSVVLGWPYGWRQSEDPRAWKTFIDTVRCTTAAHLALLVPKNIAFYPSNHERYLDGHIDVWWIVHDGGMLMLLPFLLRQHKVWKKCRMRIFTVAQMDDNSIQMKKDLAIFLYHLRLEAEVEVVEMHNSDISAYTYERTLMMEQRSQMLRQMRLTKTERDREAQLVKDRHSALRLESLYSDEEEESVAGADKIQMTWTRDKYMAEPWDPSHAPDNFRELVHIKPDQSNVRRMHTAVKLNEVIVTRSHDARLVLLNMPGPPKNSEGDENYMEFLEVLTEGLERVLLVRGGGREVITIYS
  stoichiometry N: ~2
